One data set has as its target AUF1 p37 (UniProt Q14103-4 1-287). The data set is described as follows: fluorescence anisotropy. For orientation: In fluorescence polarisation assays a small probe gives low polarisation when free and higher when bound to something large.
The target of another data set is AUF1 p42 (UniProt Q14103-2 1-336). The experiment in a line: fluorescence anisotropy.
Data set [1] concerns the target T1, AUF1 p37 C207E (UniProt Q14103-4 1-287, C207E). The experiment in a line: fluorescence anisotropy.
Data set [2] addresses T1, AUF1 p37 C207E. The data set is described as follows: EMSA. A general note: Mobility shift assays separate free from complexed probe on a gel.
A further data set addresses AGO2 (hAGO2) (human, UniProt Q9UKV8 1-859). The data set is described as follows: single-molecule fluorescence.
The target of a further data set is HILI (hHILI) (human, UniProt Q8TC59 1-973). The data set is described as follows: single-molecule fluorescence.
Chain of HILI (hHILI) (Q8TC59 whole entry): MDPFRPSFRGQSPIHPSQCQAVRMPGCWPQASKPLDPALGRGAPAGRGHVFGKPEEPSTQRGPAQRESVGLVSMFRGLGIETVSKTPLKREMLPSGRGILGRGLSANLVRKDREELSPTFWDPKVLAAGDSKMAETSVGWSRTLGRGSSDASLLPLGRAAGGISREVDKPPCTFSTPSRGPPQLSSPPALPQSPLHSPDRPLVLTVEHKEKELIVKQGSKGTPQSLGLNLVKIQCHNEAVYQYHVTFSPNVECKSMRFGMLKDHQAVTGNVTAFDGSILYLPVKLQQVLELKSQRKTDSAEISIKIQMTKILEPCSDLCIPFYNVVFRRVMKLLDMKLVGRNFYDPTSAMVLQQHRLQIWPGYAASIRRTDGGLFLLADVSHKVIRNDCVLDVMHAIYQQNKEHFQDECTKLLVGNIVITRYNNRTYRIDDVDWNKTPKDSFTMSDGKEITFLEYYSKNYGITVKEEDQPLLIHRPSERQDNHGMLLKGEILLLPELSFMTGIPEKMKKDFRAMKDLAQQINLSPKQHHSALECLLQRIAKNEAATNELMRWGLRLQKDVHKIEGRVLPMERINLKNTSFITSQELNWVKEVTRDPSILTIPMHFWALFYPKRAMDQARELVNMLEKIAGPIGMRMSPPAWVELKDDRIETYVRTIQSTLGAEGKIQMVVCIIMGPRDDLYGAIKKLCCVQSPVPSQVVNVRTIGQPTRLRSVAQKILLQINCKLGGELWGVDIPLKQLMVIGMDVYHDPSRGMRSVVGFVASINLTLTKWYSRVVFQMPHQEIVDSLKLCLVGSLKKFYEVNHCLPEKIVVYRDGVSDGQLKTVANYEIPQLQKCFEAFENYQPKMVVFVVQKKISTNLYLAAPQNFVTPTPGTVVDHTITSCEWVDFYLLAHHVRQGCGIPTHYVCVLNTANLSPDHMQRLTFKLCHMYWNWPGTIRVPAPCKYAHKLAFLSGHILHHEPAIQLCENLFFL

Chain of AGO2 (hAGO2) (Q9UKV8 whole entry): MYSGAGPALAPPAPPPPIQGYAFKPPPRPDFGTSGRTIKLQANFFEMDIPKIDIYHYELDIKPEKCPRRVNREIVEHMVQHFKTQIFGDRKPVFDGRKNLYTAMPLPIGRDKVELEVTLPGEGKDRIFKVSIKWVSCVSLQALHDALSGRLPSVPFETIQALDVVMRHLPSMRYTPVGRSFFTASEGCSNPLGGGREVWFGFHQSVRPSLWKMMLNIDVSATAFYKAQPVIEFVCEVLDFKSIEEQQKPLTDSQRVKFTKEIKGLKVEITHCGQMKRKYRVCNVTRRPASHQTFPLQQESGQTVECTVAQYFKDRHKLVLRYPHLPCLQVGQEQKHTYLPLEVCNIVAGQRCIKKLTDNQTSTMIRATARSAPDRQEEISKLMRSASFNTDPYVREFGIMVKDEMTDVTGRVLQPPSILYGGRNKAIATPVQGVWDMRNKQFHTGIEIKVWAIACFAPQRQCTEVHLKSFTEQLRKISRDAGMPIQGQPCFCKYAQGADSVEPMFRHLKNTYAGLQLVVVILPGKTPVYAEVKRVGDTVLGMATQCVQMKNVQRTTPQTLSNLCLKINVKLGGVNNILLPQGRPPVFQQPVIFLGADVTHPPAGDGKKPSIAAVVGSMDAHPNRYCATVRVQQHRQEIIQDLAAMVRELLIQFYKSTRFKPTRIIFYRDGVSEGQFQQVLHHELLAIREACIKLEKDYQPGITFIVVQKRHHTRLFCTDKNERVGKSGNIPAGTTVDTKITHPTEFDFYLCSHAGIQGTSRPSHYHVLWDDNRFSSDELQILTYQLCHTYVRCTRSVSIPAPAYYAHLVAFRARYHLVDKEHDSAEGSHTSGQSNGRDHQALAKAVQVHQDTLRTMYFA

In the case of UGAGGUAGUAGGUUGUGUGGUU (ssRNA) [let-7b (Fl)], the Kd in the data set with AUF1 p37 turned out to be 5.9 nM; with AUF1 p42 it was 9.7 nM. Also, in the data set with AUF1 p37 C207E [1], the binding result is “no binding”. For CUAUACAACCUACUGCCUUCCC (ssRNA) [let-7b* (32P or 3' Fl)], the binding result in the data set with AUF1 p37 C207E [2] is on record as “no binding”. Take UGAGGUAGUAGGUUGUGUGGUU (ssRNA, amino-modifier C6 U at position 18 (iAmMC6)) [Cy5-let-7b (internal)]: the binding result in the data set with AGO2 (hAGO2) was “binds”; in the data set with HILI (hHILI), “no binding”. With UGAGGUAGUAGGUUGUGUGGUU (ssRNA) [let-7b (32P)], in the data set with AUF1 p37 C207E [2], the binding result is “no binding”. Still for that read-out and setting: as for CCCCUGGCUCACAAAUACCUUAUUUAUUUAUUUAG (ssRNA) [canonical AU-rich element], the entry is “no binding”.

What is called Kd is the constant that tells how readily two partners part at equilibrium. Low values mean a tighter complex, high ones a looser complex.

The record behind these values is paper PMC4536308.
